# From paper PMC6648891
# T1: FOXC2 DBD (Homo sapiens, UniProt Q99958 60-198)
# T1 sequence: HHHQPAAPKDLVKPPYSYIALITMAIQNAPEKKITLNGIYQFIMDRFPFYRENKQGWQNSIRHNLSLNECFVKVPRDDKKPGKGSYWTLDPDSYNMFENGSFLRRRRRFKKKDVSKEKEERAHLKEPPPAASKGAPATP
# Molecular target: T1, FOXC2 DBD
# Test: EMSA
binder,measurement,value
16 bp EMSA DNA (dsDNA) DNA 1: CAAGGTAAACAAACCA DNA 2: TGGTTTGTTTACCTTG,Kd,26.4 µM
